According to IntAct's records for PubMed 21390248:

Tests used:
1433g_mouse Ywhag [1] = target: 1433g_mouse Ywhag (UniProt P61982)
1433g_mouse Ywhag [2] = target: 1433g_mouse Ywhag (UniProt P61982); remark: listed apart in the source

Sequence of UniProt P61982 (P61982 whole entry): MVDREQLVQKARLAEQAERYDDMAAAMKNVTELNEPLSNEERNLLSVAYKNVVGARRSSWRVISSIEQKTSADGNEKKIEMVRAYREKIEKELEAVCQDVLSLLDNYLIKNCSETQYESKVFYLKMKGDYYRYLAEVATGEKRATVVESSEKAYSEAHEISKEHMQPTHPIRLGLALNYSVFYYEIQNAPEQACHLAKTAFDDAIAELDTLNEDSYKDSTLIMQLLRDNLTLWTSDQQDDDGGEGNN

Row | effect of a mutation on the interaction (1433g_mouse Ywhag [1]) | effect of a mutation on the interaction (1433g_mouse Ywhag [2]) | Substance
1 | decreasing interaction | – | Leucine-rich repeat serine/threonine-protein kinase 2 (Mus musculus), Q5S006 R1441G
2 | – | decreasing interaction | Leucine-rich repeat serine/threonine-protein kinase 2 (Mus musculus), Q5S006 Y1699C
3 | decreasing interaction | – | Leucine-rich repeat serine/threonine-protein kinase 2 (Mus musculus), Q5S006 S935A
4 | decreasing interaction | – | Leucine-rich repeat serine/threonine-protein kinase 2 (Mus musculus), Q5S006 G2019S
